Measurements from US20080207488A1, “Method for Detecting Peptides Comprising a Cross-B Structure” (priority 2005, published 2008).

Assays:
[1] = Thioflavin T fluorescence; assay type: physicochemical; details: for Fluorescence (a.u. +/− SD) ThT: marketed biopharmaceutical within expiry limits, five μL tested
Experimental: Fluorescence of ThT-protein/peptide adducts was measured as follows. […] Fluorescence was measured at 485 nm upon excitation at 435 nm. Background signals from buffer, buffer with ThT and protein/peptide solution without ThT were subtracted from corresponding measurements with protein solution incubated with ThT. […] Fluorescence was measured in triplicate on a Hitachi F-4500 fluorescence spectrophotometer (Ltd., Tokyo, Japan).
(§1) Formulated protein therapeutics were obtained from the local hospital pharmacy and were used as supplied by the manufacturers. […] Lyophilized therapeutics were dissolved according to the manufacturers recommendations. […] Other protein therapeutics were only kept at 4° C., and assayed for the presence of cross-β structure conformation at shown time points. Enhancement in fluorescence of ThT and Congo red was measured with all formulated protein therapeutics. For this purpose, proteins were diluted to the indicated concentrations. […] Zinc-insulin was diluted tenfold in the activation assay, GH was diluted to a final concentration of 500 μg ml^−1. Activation of factor XII and prekallikrein by the therapeutics was tested in the chromogenic factor XII assay (see above). […] After coating, plates were blocked with Blocking Reagent (Roche Diagnostics, Almere, The Netherlands).
To prepare structurally altered ovalbumin (OVA) with amyloid cross-β structure conformation, purified OVA (Sigma, A-7641, lot 071k7094) was heated to 85° C. One mg ml^−1 OVA in 67 mM NaPi buffer pH 7.0, 100 mM NaCl, was heated for two cycles in PCR cups in a PTC-200 thermal cycler (MJ Research, Inc., Waltham, Mass., USA). In each cycle, OVA was heated from 30 to 85° C. at a rate of 5° C./min. Native OVA (nOVA) and heat-denatured OVA (dOVA) were tested in the ThT fluorescence assay and in the Plg-activation assay. In the fluorescence assay and in the Plg-activation assay, 25 and 100 μg ml^−1 nOVA and dOVA were tested, respectively. TEM images of nOVA and dOVA were taken to check for the presence of large aggregates. […] MSA (#126674, Calbiochem) was dissolved in 8 M urea, 100 mM Tris-HCl pH 8.2, at 10 mg ml^−1 final concentration. Dithiothreitol (DTT) was added to a final concentration of 10 mM. Air was replaced by N2 and the solution was incubated for 2 h at room temperature. Then, the solution was transferred to ice and iodoacetamide was added from a 1 M stock to a final concentration of 20 mM. […] Alkyl-MSA was dialyzed against H2O before use. […] In the ThT-fluorescence assay 25 μg ml^−1 nMSA and alkyl-MSA were tested, and in the Plg-activation assay 100 μg ml^−1 was tested. The presence of aggregates or fibrils was analyzed using TEM. […]
(§2) Protein therapeutics were obtained from the local hospital pharmacy and analyzed within the expiry limits as stated by the manufacturers.

tPA [2] = biological target: T1, tPA (Homo sapiens, UniProt P00750); experiment: Plasminogen-activation assay (tPA-mediated Plg to Pls, S-2251); assay type: biochemical; details: for tPA activating potential of native and denatured glucagon and Etanercept: FIG. 6E, G
T1 construct: purchased Boehringer-Ingelheim (Actilyse, Alteplase)
T1 sequence (P00750 36-562): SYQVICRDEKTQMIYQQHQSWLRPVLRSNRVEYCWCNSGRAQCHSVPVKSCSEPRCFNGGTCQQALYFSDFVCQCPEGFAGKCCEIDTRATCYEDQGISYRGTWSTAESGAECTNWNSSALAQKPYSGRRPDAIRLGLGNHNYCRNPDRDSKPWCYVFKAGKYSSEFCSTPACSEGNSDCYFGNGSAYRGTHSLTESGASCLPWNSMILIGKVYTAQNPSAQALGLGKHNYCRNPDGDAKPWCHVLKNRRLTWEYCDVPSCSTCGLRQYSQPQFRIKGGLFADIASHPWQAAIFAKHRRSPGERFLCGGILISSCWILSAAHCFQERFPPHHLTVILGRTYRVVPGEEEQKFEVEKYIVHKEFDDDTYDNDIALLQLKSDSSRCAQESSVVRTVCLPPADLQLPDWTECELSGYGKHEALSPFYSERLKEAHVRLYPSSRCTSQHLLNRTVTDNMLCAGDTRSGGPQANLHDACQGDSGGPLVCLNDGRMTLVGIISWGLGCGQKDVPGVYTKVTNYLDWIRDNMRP
Experimental: (§3) Plasmin (Pls) activity was assayed as described^7. Peptides and proteins that were tested for their stimulatory ability were regularly used at 100 μg ml^−1. […] Chromogenic substrate S-2251 (Chromogenix, Instrumentation Laboratory SpA, Milano, Italy) was used to measure Pls activity. Conversion of zymogen factor XII (#233490, Calbiochem, EMD Biosciences, Inc., San Diego, Calif.) to proteolytically active factor XII (factor XIIa) was assayed by measurement of the conversion of chromogenic substrate Chromozym-PK (Roche Diagnostics, Almere, The Netherlands) by kallikrein. Chromozym-PK was used at a concentration of 0.3 mM. Factor XII, human plasma prekallikrein (#529583, Calbiochem) and human plasma cofactor high-molecular weight kininogen (#422686, Calbiochem) were used at concentrations of 1 μg ml^−1. […] Assays were performed using microtiter plates (Costar, Cambridge, Mass., USA). Peptides and proteins were tested for their ability to activate factor XII. 150 μg ml^−1 kaolin, an established activator of factor XII was used as positive control and solvent (H2O) as negative control. The conversion of Chromozym-PK was recorded kinetically at 37° C. for at least 60 minutes. Assays were done in duplicate. […] Alternatively, chromogenic substrate S-2222 (Chromogenix) was used to follow the activity of factor XII itself. With S-2222, activation of factor XII in plasma was measured, using 60% v/v plasma, diluted with substrate and H2O with or without potential cofactor. Furthermore, auto-activation of factor XII was measured by incubating 53 μg ml^−1 purified factor XII in 50 mM Tris-HCl buffer pH 7.5 with 1 mM EDTA and 0.001% v/v Triton-X100, with S-2222 and H2O with or without potential cofactor.
as §1
Purification of β2-glycoprotein I (β2GPI) was performed according to established methods^11,12. Recombinant human β2GPI was made using insect cells and purified as described^11. Plasma derived β2GPI as used in a factor XII ELISA, the chromogenic Plg-activation assay and in the anti-phospholipid syndrome antibody ELISA (see below), was purified from fresh human plasma as described^12.
To prepare structurally altered ovalbumin (OVA) with amyloid cross-β structure conformation, purified OVA (Sigma, A-7641, lot 071k7094) was heated to 85° C. One mg ml^−1 OVA in 67 mM NaPi buffer pH 7.0, 100 mM NaCl, was heated for two cycles in PCR cups in a PTC-200 thermal cycler (MJ Research, Inc., Waltham, Mass., USA). In each cycle, OVA was heated from 30 to 85° C. at a rate of 5° C./min. Native OVA (nOVA) and heat-denatured OVA (dOVA) were tested in the ThT fluorescence assay and in the Plg-activation assay. In the fluorescence assay and in the Plg-activation assay, 25 and 100 μg ml^−1 nOVA and dOVA were tested, respectively. TEM images of nOVA and dOVA were taken to check for the presence of large aggregates. […] MSA (#126674, Calbiochem) was dissolved in 8 M urea, 100 mM Tris-HCl pH 8.2, at 10 mg ml^−1 final concentration.

tPA [3] = biological target: T1, tPA; experiment: tPA/plasminogen activation assay (400 pM tPA); assay type: biochemical; details: % of standardized positive control (denatured γ-globulins 100 μg/ml); 1:10 diluted samples
Experimental: β2-GPI was reduced and alkylated as follows. Six hundred forty μl of β2-GPI stock was mixed with 640 μl of 8 M Urea (cooled solution) in 0.1 M Tris pH=8.2. The solution was degassed with N2 gas for approximately 6 minutes. From a 1 M DTT stock 12.8 μl was added to the solution, mixed and incubated for 3 hours at room temperature. A 1 M Iodoacetamide (Sigma; 1-6125) was prepared, of which 25.6 μl was added to the β2-GPI reaction mixture. The solution was subsequently dialysed against PBS. […] Signals obtained with alkyl-62gpi are compared with those obtained with native β2gpi starting material.
Exiqon Peptide Immobilizer plates were blocked for 1 hour with PBS, 1% Tween20 and rinsed twice with distilled water. The conversion of the chromogenic substrate S-2251 (Chromogenix, Italy) by plasmin was kinetically measured at 37° C. on a Spectramax340 microplate reader at a wavelength of 405 nm. […] Denatured γ-globulins (100 μg/ml) with amyloid-like structure was used as reference and positive control. Lyophilized γ-globulins (Sigma, MO, USA) were dissolved in a 1(:)1 volume ratio of 1,1,1,3,3,3-hexafluoro-2-propanol and trifluoro-acetic acid and subsequently dried under air. Dried γ-globulins was dissolved in H2O to a final concentration of 1 mg/ml and kept at room temperature for at least three days and subsequently stored at −20° C.
as §2

[4] = Stability testing of biopharmaceuticals under denaturing conditions (ThT fluorescence, tPA activation); assay type: physicochemical; details: ThT at 25 μg/mL, tPA activation at 100 μg/mL
Experimental: To mimic accelerated stability testing several therapeutics were exposed to denaturing conditions and assayed for amyloid-like properties before and after treatment by tPA activation assay at 100 μg/mL protein and ThT fluorescence enhancement assay at 25 μg/mL protein. For this purpose, 5 mg/mL Glucagon (Glucagen; Novo Nordisk Farma B.V., Alphen aan de Rijn, The Netherlands) was incubated at 37° C. in 0.01 M HCl for 48 hours. One mg/mL Etanercept (Enbrel; Wyeth Pharmaceuticals B.V., Hoofddorp, The Netherlands) in 67 mM sodium phosphate buffer, 100 mM NaCl pH 7.0 was gradually heated from 30° C. to 85° C. over a period of 12 minutes and afterwards cooled to 4° C. for 5 minutes, this treatment was repeated 4 times. Abciximab (Reopro; Centocor B.V., Leiden, The Netherlands) and Infliximab (Remicade; Schering-Plough B.V., Utrecht, The Netherlands) were incubated at 65° C. for 16 and 72 hours, respectively.

factor XII = biological target: T2, factor XII (Homo sapiens, UniProt P00748); experiment: Chromogenic factor XII/prekallikrein activation assay (Chromozym-PK); assay type: biochemical
T2 construct: purchased Calbiochem, EMD Biosciences #233490
T2 sequence (P00748 20-615): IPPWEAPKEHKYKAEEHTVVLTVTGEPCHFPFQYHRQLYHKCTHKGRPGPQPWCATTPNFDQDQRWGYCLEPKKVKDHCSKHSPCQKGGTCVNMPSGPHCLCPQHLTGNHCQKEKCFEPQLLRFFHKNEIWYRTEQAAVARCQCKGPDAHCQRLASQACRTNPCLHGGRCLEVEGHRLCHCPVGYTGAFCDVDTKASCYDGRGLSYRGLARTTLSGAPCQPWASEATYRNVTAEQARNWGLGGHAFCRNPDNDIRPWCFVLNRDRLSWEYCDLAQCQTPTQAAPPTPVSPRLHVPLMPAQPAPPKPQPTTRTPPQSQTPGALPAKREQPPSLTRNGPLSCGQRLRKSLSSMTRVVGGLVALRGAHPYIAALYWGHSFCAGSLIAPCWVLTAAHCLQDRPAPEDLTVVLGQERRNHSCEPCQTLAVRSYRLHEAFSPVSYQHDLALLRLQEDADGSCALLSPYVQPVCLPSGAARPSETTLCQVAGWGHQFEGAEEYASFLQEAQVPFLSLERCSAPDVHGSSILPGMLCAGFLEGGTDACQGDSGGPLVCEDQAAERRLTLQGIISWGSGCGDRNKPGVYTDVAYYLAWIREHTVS
Experimental: as §3, §1

Congo red fluorescence = assay type: physicochemical; details: for enhancement of Congo red fluorescence: therapeutics stored at 4° C.; for Fluorescence (a.u. +/− SD) CR: marketed biopharmaceutical within expiry limits, five μL tested
Experimental: Background signals from buffer, buffer with Congo red and protein/peptide solution without Congo red were subtracted from corresponding measurements with protein solution incubated with Congo red. Fluorescence was measured in triplicate on a Hitachi F-4500 fluorescence spectrophotometer (Ltd., Tokyo, Japan).
as §1, §2

tPA [5] = biological target: T1, tPA; experiment: tPA ELISA with coated protein therapeutics; assay type: binding; details: 5 μg ml^−1 coated, stored at 4° C.
Experimental: as §1

tPA [6] = biological target: T1, tPA; experiment: tPA binding assay with immobilized biopharmaceuticals in an ELISA; details: therapeutic coated 1:10; one-site binding fit
Experimental: Nunc Immobilizer plates (Nalge Nunc, #436013, Rochester, N.Y., USA) were coated with 50 μL containing 5 μg/mL of sample protein (unless indicated otherwise) in 100 mM NaHCO3, pH 9.6, 0.05% m/v NaN3 for 1 hour at room temperature. Plates were washed twice with Tris buffered saline pH 7.2 containing 0.1% Tween20 (TBST) and blocked with PBS containing 1% Tween20 for 1 hour at room temperature. […] Plates were washed five times with TBST and incubated with peroxidase labeled anti-mouse immunoglobulins (RAMPO; DAKOCytomation, Glostrup, Denmark) diluted 1:3000 in PBST for 30 minutes at room temperature. Plates were washed five times with PBS 0.1% Tween20, and stained with 100 μL/well of tetramethyl-benzidine (TMB) substrate (Biosource Europe, Nivelles, Belgium). The reaction was terminated with 50 μL/well of 2 M H2SO4 and substrate conversion was read at 450 nm on a Spectramax340 microplate reader. Curves were fitted with a one-site binding model (GraphPad Prism version 4.02 for Windows, Graphpad Software, CA, USA) from which Kd and Bmax were determined.
as §2

Row | Substance | tPA activating potential of native and denatured glucagon and Etanercept (tPA [2]) | tPA activation Max. Activation (%) (tPA [3]) | factor XII activation by gelatin (factor XII; kept at 37° C.) | factor XII/prekallikrein activation by protein therapeutics (factor XII; stored at 4° C.) | binding of tPA to immobilized therapeutic (tPA [5]) | tPA activation by protein therapeutics (tPA [2]; stored at 4° C., GH 500 μg ml^−1, zinc-insulin diluted tenfold) | tPA Binding Bmax (OD450 nm) (tPA [6]) | ThT fluorescence enhancement of native and denatured proteins ([1]; 25 μg ml^−1) | Fluorescence (a.u. +/− SD) ThT [1] | amyloid-like properties after exposure to harsh denaturing conditions (low pH, heat) [4] | Congo red fluorescence of gelatin (Congo red fluorescence; stored at 4° C. and 37° C.) | enhancement of Congo red fluorescence (Congo red fluorescence) | Fluorescence (a.u. +/− SD) CR (Congo red fluorescence) | enhancement of ThT fluorescence ([1]; therapeutics stored at 4° C.)
1 | gelatin |  |  | activated factor XII | not | binding of tPA was established |  |  |  |  |  | enhanced Congo red fluorescence in a storage temperature dependent manner | enhanced the fluorescence of Congo red |  | 
2 | Infliximab: human-murine chimeric monoclonal antibody (Remicade-infliximab) |  | 0% |  |  |  |  |  |  | 19 +/− 1 a.u. | amyloid-like properties are adopted |  |  | 67 +/− 2 a.u. | 

Second part, led by results:

Row | tPA activating potential of native and denatured glucagon and Etanercept (tPA [2]) | tPA activation Max. Activation (%) (tPA [3]) | factor XII activation by gelatin (factor XII; kept at 37° C.) | factor XII/prekallikrein activation by protein therapeutics (factor XII; stored at 4° C.) | binding of tPA to immobilized therapeutic (tPA [5]) | tPA activation by protein therapeutics (tPA [2]; stored at 4° C., GH 500 μg ml^−1, zinc-insulin diluted tenfold) | tPA Binding Bmax (OD450 nm) (tPA [6]) | Substance | ThT fluorescence enhancement of native and denatured proteins ([1]; 25 μg ml^−1) | Fluorescence (a.u. +/− SD) ThT [1] | amyloid-like properties after exposure to harsh denaturing conditions (low pH, heat) [4] | Congo red fluorescence of gelatin (Congo red fluorescence; stored at 4° C. and 37° C.) | enhancement of Congo red fluorescence (Congo red fluorescence) | Fluorescence (a.u. +/− SD) CR (Congo red fluorescence) | enhancement of ThT fluorescence ([1]; therapeutics stored at 4° C.)
3 | induces some tPA activation | 0% |  |  |  |  |  | Etanercept | gave some ThT fluorescence enhancement | 23 +/− 3 a.u. | amyloid-like properties are adopted |  |  |  | 
4 | has some tPA activating potential | 11.25% |  |  |  |  |  | Glucagon: human glucagon (Glucagen, Novo Nordisk) |  | 48 +/− 1 a.u. | amyloid-like properties are adopted |  |  |  | 
5 |  |  |  |  | binding of tPA was established | induced tPA activation | 0.9369 OD450 nm | Somatropin: human growth hormone (GH) (Genotropin, Pharmacia) |  | 1317 +/− 10 a.u. |  |  | to some extent | 429 +/− 2 a.u. | enhance fluorescence of ThT
